From patent publication US20190016825A1 come the findings set out here.

Assay [1] concerns the target biotin-PCSK9-his (UniProt Q8NBP7). Nature of the assay: competitive ELISA, one antibody coated, biotin-PCSK9-his plus 50-fold competitor; competitor: 21B12. A general note: An ELISA detects its analyte on a solid surface through an enzyme-linked reagent.
The target is the same in assay [2]. Nature of the assay: competitive ELISA, one antibody coated, biotin-PCSK9-his plus 50-fold competitor; competitor: h001-4.

Regarding “21B12 (U.S. Pat. No. 8,030,457B2) (antibody)”, the IR (%) in assay [1] is 97.8%; in assay [2], 3.86%.
